Data reported in the nanobody polyreactivity screen of Harvey et al. (2022).

Experiment: yeast display, Sf9 membrane polyspecificity reagent, FACS + sequencing; frameworks hold sequencing errors
How it was run: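 Galactose-induced (36–48 hours) yeast carrying a synthetic nanobody display library were exposed to 10% biotinylated, detergent-solubilized Sf9 membrane reagent at 4 °C for 1 hour. FACS followed streptavidin microbead enrichment, using low and high (top ~1%) gates for expression (anti-HA) and reagent binding (streptavidin). Colony PCR, MiSeq 2 × 250 sequencing and CDR-length filtering followed. Labels for polyreactivity reflect the gate of origin.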

## QVQLVESGGGLVQAGGSLRLSCAASGFTISFYAMGWYRQAPGKERELVAAITWNGGNTYYADSVKGRFTISRDNAKNTVYLQMNSLKPEDTAVYYCNKDSYYYHFDYWGQGTQVTVSS
  polyreactivity (PSR sort gate): high polyreactivity

## QVQLVESGGGLVQAGGSLRLSCAASGFTITYNAMGWYRKAPGKEREFVAAITNNGSTYYADSVKGRFTISRDNAKNTVYLQMNSLKPEDTAVYYCAVDPGYYDEYKYWGQGTQVTVSS
  polyreactivity (PSR sort gate): low polyreactivity

## QVQLVESGGGLVQAGGSLRLSCAASGFTIVWYAMGWYRQATGKERELVAAISSGVSTYYADSVKGRFTISRDNAKNTVYLQMNSLKPEDTAVYYCAADREYYDEYAGYEYWGQGTQVTVSS
  polyreactivity (PSR sort gate): low polyreactivity

## QVQLVESGGGLVQAGGSLRLSCAASGFTIWRYAMGWYRQAPWKARELVAAISRGGSTNYADSVKGRFTISRDNAKNTVYLQMNSLKPEDTAVYYCAASVQYRRLKKFYYWGQGTQVTVSS
  polyreactivity (PSR sort gate): high polyreactivity

## QVQLVESGGGLVQAGGSLRLSCAASGFTIYANAMGWYRQAPGKERELVAAISSNGGSTYYADSVKGRFTISRDNAKNTVYLQMKSLKPEDTAVYSCADYFGSVLRSTIYDYWGQGTQVTVSS
  polyreactivity (PSR sort gate): low polyreactivity

## QVQLVESGGGLVQAGGSLRLSCAASGFTIYGYAMGWYSQAPGKERELVAAISSSGGRTYYADSVKGRCTISRDNAKNTVYLQMNSLKPEDTAVYYCAAEYRSYRDGYWGQGTQVTVSS
  polyreactivity (PSR sort gate): high polyreactivity

## QVQLVESGGGLVQAGGSLRLSCAASGFTIYRYAMGWSRQAPGKERELVAAISGGGSRTYYADSVKGRFTISRDNAKNTVYLLMNSLKPEDTAVYYCNADPVKYSYDGYARPRYDYWGQGTQVTVSS
  polyreactivity (PSR sort gate): low polyreactivity

## QVQLVESGGGLVQAGGSLRLSCAASGFTIYRYAMGWYRQAPGKERELVAAITWSGVSTYYADSVKGRFTISRDNAKNTVYLQMNSLKPEDTAVYYCAATTYSSSSSHDYWGQGTQVTVSS
  polyreactivity (PSR sort gate): low polyreactivity

## QVQLVESGGGLVQAGGSLRLSCAASGFTIYRYAMGWYRQAPGKERELVASITWSGGSTYYADSVKGRFTISRDNAKNTVYLQMNSLKPEDTAVYYCNALFSWGTGYGSSYGYWGQGTQVTVSS
  polyreactivity (PSR sort gate): high polyreactivity

## QVQLVESGGGLVQAGGSLRLSCAASGFTIYYYAMGWYRQAPGKERELVASITSGGSTYYADSVKGRFTISRDNAKNTVYLQMHSLKPEDTAVYDCAKTRLHSKEGDYWGQGTQVTVSS
  polyreactivity (PSR sort gate): low polyreactivity

## QVQLVESGGGLVQAGGSLRLSCAASGFTIYYYAMGWYRQAPGKERELVASITSGGSTYYADSVKGRFTISRDNAKNTVYLQMNSLKPEDTAVYYCAKTRFHSKEGDYWGQGTQVTVSS
  polyreactivity (PSR sort gate): low polyreactivity

## QVQLVESGGGLVQAGGSLRLSCAASGFTLAGYDMGWYRQAPGKERELVATISTYADSVKGRFTISRDNAKNTVYLQMNSLKPEDTAVYDCAKKYVWTHNYWGQGTQVTVSS
  polyreactivity (PSR sort gate): low polyreactivity

## QVQLVESGGGLVQAGGSLRLSCAASGFTLARNTMGWYRQAPGKQRELVAAISGGGSTNYADSVKGRFTISRDNAKNTVYLLMYSLKPEHTAVYYCNADSNSDNNDYDYWGQGSQVTVSS
  polyreactivity (PSR sort gate): low polyreactivity

## QVQLVESGGGLVQAGGSLRLSCAASGFTLDNYAIGWYRPAPGKERELVAASSWSGGRTYYADSVKGRFTISRDNAKNTVYLQMNSLKPEDTAVYYCYASPYGRKYGILADGDYWGQGTQVTVSS
  polyreactivity (PSR sort gate): high polyreactivity

## QVQLVESGGGLVQAGGSLRLSCAASGFTLDYYAMGLYRQAPGKERELVAAITSGSITYYADSVKGRFTISRDNAKNTVYLQMNSLKPEDTAVYYCAAVGLVRYGYWGQGTQVTVSS
  polyreactivity (PSR sort gate): high polyreactivity

## QVQLVESGGGLVQAGGSLRLSCAASGFTLFDYAMGWYRQAPGKERELVAAITTSGGSTYYADSVKGRFTISRDNAKNTVYLQMNSLKPEDTAVYYCAVEYMLTYYYYVSYEYYYWGQGTQVTVSS
  polyreactivity (PSR sort gate): high polyreactivity

## QVQLVESGGGLVQAGGSLRLSCAASGFTLFTYAMGWYRQAPGKERELVAAIRSGGSTYYADSVKGRFTISRDTAKNTVYLQMNSLKPEDTAVYYCNAVYRYASGKYYYWGQGTQVTVSS
  polyreactivity (PSR sort gate): high polyreactivity

## QVQLVESGGGLVQAGGSLRLSCAASGFTLGFNAMGWYRQAPGKERELVATISSSGGSTHYADSVKGRFTISRDNAKNTVYLQMNSLKPEDTAVYYCARDDSDRIWLEQSGYWGQGTQVTVSS
  polyreactivity (PSR sort gate): low polyreactivity

## QVQLVESGGGLVQAGGSLRLSCAASGFTLGFYAMGWYIQAPGKERELVAAINWRGGSTYYADSVKGRFTISRDNAKNTVYLQMNSLKPEDTAVYYCNAGFNTGGYGYWGQGTQVTVSS
  polyreactivity (PSR sort gate): high polyreactivity

## QVQLVESGGGLVQAGGSLRLSCAASGFTLGHYAMGWYRQAPGKERELVAVITSGSSTNYADSVKGRFTISRDNAKNTVYLQMNSLKPDDTAVYYCAAEDPYFKWLYYYWGQGTQVTVSS
  polyreactivity (PSR sort gate): low polyreactivity

## QVQLVESGGGLVQAGGSLRLSCAASGFTLGSNVMGWYRQAPGKERELVAGISQSGGRTFYADSVKGRFTISRDNAKNTVYLQMNSLKPEDTAVYYCAARRYAVEGSKNYYWGQGTQVTVSS
  polyreactivity (PSR sort gate): low polyreactivity

## QVQLVESGGGLVQAGGSLRLSCAASGFTLGSNVMGWYRQAPGKERELVAGISQSGGRTFYADSVKGRFTISRDNAKNTVYLQMNSLKPEDTAVYYCNKGASPDDYDYWGQGTQVTVSS
  polyreactivity (PSR sort gate): low polyreactivity

## QVQLVESGGGLVQAGGSLRLSCAASGFTLGYYTMGWYRQAPGKERELVAAIRSNGGSTYYADSVKGRFTISRDNAKNTVYLQMNSLKPEDTAVYYCAARRWRYVGTRYDYWGQGTQVTVSS
  polyreactivity (PSR sort gate): high polyreactivity

## QVQLVESGGGLVQAGGSLRLSCAASGFTLIHYAMGWYRQAPGKERELVAGITTSGGSTYYADSVKGRFTISRDNAKNTVYLQMNSLKPEDTAVYYCAASSNTRGDYWGQGTQVTVSS
  polyreactivity (PSR sort gate): high polyreactivity

## QVQLVESGGGLVQAGGSLRLSCAASGFTLISYDMGWYRPSPGKERELVAGISSGDSTDYADSVKGRFTISRDNAKNTVYLQMNSLKPEDTAVYYCAATWYGYYSRYDFYYWGQGTQVTVSS
  polyreactivity (PSR sort gate): low polyreactivity

## QVQLVESGGGLVQAGGSLRLSCAASGFTLKSYAMGWYRQAPGKERELVASISRRGGSTYYADSVKGRFTISRDNAKNTVYLQMNSLKPEDTAVYYCNADYVRFPGNAYDYWGQGTQVTVSS
  polyreactivity (PSR sort gate): high polyreactivity

## QVQLVESGGGLVQAGGSLRLSCAASGFTLKYYAMGWYRQAPGKERELVAAITSSGGSTYYADSVKGRFTISRDNAKNTVYLQMNSLKPEDTAVYYCNAVTVYKHGSWGQGTQVTVSS
  polyreactivity (PSR sort gate): high polyreactivity

## QVQLVESGGGLVQAGGSLRLSCAASGFTLLKNAMRGYRQAPGKERELVAAIRVSGGSTYYADSVKGRFTISRDNAKNSVYLQMNSLKPEDTAVYYCAAKYLRWPVSTMYYWGQGTQVTVSS
  polyreactivity (PSR sort gate): high polyreactivity

## QVQLVESGGGLVQAGGSLRLSCAASGFTLQQYTMGWYRQAPGKERELVAAISTSGVRTYYADSVKGRFTISRDNAKNTVYLQMNSLKPEDTAVYYCNAAWVYGIGWYSGYDYWGQGTQVTVSS
  polyreactivity (PSR sort gate): high polyreactivity

## QVQLVESGGGLVQAGGSLRLSCAASGFTLRLYVMGWYRQAPGKERELVAAITSSGGSTYYADSVKGRFTISRDIAKNTVYLQMNSLKPEDTAVYYCAAVNRKSQLYGYWGQGTQVTVSS
  polyreactivity (PSR sort gate): high polyreactivity

## QVQLVESGGGLVQAGGSLRLSCAASGFTLRRYAMGWYRLAPGKERELVATITSGGTTDYADSVKGRFTISRDNAKNTVYLQMNSLKPEDTAVYYCAAYRRGAYYYWGQGTQVTVSS
  polyreactivity (PSR sort gate): high polyreactivity

## QVQLVESGGGLVQAGGSLRLSCAASGFTLSKYAKGWYRPAPGKERELVAAITGSGVRTYYADSVKGRFTISRDYAKNSVYLELNSLKPEDTAVYYCATGTKKGRYRDELDCWGHGTQVTVSS
  polyreactivity (PSR sort gate): high polyreactivity

## QVQLVESGGGLVQAGGSLRLSCAASGFTLSNNAMGWYRQAPGKERELVAGLTSGGDSTNYADSVKGRFTISRDNAKNTVYLQMNSLKREDTAVYDCAAQGGTNTPGVVESDYWGQGTQVTVSS
  polyreactivity (PSR sort gate): low polyreactivity

## QVQLVESGGGLVQAGGSLRLSCAASGFTLSRNAMGWYRQAPGKERELVAAISYSGARTYYADSVKGRFTISRDNAKNTVYLQMNRLKPEDTAVYYCAKVVPYPDYDYWGQGTQVTVSS
  polyreactivity (PSR sort gate): high polyreactivity

## QVQLVESGGGLVQAGGSLRLSCAASGFTLSYNVMGWYRQAPGKERELVAAISDSGGSTYYADSVKGRFTISRDNAKNTVYLQMNSLKPEDTAVYYCAAYYPTRYQYGTIWVAYNYWGQGTQVTVSS
  polyreactivity (PSR sort gate): low polyreactivity

## QVQLVESGGGLVQAGGSLRLSCAASGFTLTRKAMGWYRQAPGKERELVAAISRSGGSTYYADSVKGRFTISRDNAKNTVYLQMNSLKPEDTAVYYCNAGYGYGYPKYDYWGQGTQVTVSS
  polyreactivity (PSR sort gate): high polyreactivity

## QVQLVESGGGLVQAGGSLRLSCAASGFTLVNNAMGWYRQAPGKERELVAAISKRAGRTYYADSVKGRFTISRDNAKNTVYLQMNSLKPEDTAVYYCNAGKRVEYDYWGQGTQVTVSS
  polyreactivity (PSR sort gate): high polyreactivity

## QVQLVESGGGLVQAGGSLRLSCAASGFTLWLNAMGWYRQAPGKERELVAAITTSDDGTYYADSVKGRFTISRDTAKNTVYLQMNSLKPEDTAVYYCAADYYSVLYDYWGQGTQVTVSS
  polyreactivity (PSR sort gate): low polyreactivity

## QVQLVESGGGLVQAGGSLRLSCAASGFTLYVNAMGWYRHAPGKERELVAAISRGTTTYYADSVKGRFTISRDNAKNTVYLQMNSLKPEDTAVYYCAGETGHPYEEYDYWGQGTQVTVSS
  polyreactivity (PSR sort gate): high polyreactivity

## QVQLVESGGGLVQAGGSLRLSCAASGFTLYYNAMGWYRQAPGKERELVAAINIGDSTNYADSVKGRFTISRDNAKNTVYLQMNSLKPEDTAVYYCAAVLLPYGVFYTVAINVDYWGQGTQVTVSS
  polyreactivity (PSR sort gate): low polyreactivity

## QVQLVESGGGLVQAGGSLRLSCAASGFTLYYYAMGGYRQAPGKERELVAAISYSGGTTYYADSVKGRFTISRDNAKNTVYLLMYSLKPEDTAVYYCAAGFYSYSWYVKLAYGYWGQGIQVTVSS
  polyreactivity (PSR sort gate): low polyreactivity

## QVQLVESGGGLVQAGGSLRLSCAASGFTLYYYTMGWYRQAPGKERELVAAITSGGDTYYADSVKGRFTISRDNAKNTVYLQMNSLKPEDTAVYYCAAVDDDYSIVWYDYWGQGTQVTVSS
  polyreactivity (PSR sort gate): low polyreactivity

## QVQLVESGGGLVQAGGSLRLSCAASGFTQEDYTMGWYRQAPGQERELVARITSGGSTNYADSVKGRFTISRDNGKNTDYLQMNSLKADETAVYYCNARYAWINMDYWGQGTQVTVSS
  polyreactivity (PSR sort gate): low polyreactivity
